Source: publication PMC4772976 (EMBO Reports, 2016)

Molecular target: His-Ub (UniProt P0CG48 1-76)
Assay: pull-down

- binding result: binds
B1: GST-NAT10 RFL (RING finger-like, residues 456-558) (domain or fragment)
chain: SARTLYEVSLQESIRYAPGDAVEKWLNDLLCLDCLNITRIVSGCPLPEACELYYVNRDTLFCYHKASEVFLQRLMALYVASHYKNSPNDLQMLSDAPAHHLFC
